According to publication PMC10883268:

Key:
[1] = target: SecY_(A103C-V353C)EG (E. coli) (UniProt P0AGA2)
[2] = target: SecY_(A103C-V353C)EG (E. coli) (UniProt P0AGA2); remark: listed apart in the source

Chain of SecA (P10408 whole entry): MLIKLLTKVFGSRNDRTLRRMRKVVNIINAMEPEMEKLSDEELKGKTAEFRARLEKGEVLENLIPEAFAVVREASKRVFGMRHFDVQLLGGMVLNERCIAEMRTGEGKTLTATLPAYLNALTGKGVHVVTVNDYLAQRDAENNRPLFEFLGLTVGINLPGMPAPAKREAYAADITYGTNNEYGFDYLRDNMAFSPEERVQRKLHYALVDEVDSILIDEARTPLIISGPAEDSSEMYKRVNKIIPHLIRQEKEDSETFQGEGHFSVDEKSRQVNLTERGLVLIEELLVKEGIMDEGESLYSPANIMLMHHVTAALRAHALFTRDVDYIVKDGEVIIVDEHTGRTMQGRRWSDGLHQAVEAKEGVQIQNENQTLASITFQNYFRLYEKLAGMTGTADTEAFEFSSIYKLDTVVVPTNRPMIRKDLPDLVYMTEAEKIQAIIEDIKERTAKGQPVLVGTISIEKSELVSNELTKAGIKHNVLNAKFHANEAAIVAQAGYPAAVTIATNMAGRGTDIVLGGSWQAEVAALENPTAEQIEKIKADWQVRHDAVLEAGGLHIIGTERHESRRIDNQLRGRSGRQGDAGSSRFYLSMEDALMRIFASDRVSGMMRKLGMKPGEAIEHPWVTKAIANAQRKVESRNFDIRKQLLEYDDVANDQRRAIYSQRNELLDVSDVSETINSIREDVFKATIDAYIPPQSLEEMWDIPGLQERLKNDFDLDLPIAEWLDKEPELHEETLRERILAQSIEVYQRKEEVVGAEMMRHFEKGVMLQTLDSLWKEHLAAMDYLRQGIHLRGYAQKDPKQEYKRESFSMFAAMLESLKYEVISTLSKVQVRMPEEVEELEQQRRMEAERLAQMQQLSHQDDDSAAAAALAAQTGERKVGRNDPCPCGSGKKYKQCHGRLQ

smFRET between dyes on SecY C103 and C353 in proteoliposomes: balance of open and closed states with 1 µM SecA, no nucleotide, no SS, against SecYEG alone [1]: 2 fold
smFRET between dyes on SecY C103 and C353 in proteoliposomes: percent of time in the closed state with SecA, no nucleotide (~81% for SecYEG alone) [2]: > 91%
Substance: SecA (from UniProt P10408 1-901) (enzyme)
